Test results: US20200057048A1 (published 2020)

Target: T1, human islet-specific glucose-6-phosphatase catalytic subunit-related protein (IGRP) peptide on HLA-DRA*01:01 … (human)
T1 peptide: QHLQKDYRAYYTF
Test: multimer staining
Protocol: Three million transduced and sorted GP+envAm12 were plated per well of a 6 well plate in a final volume of 3 ml. Next day 100,000 JURMA-hCD4 were co-cultured with the pre-plated transduced GP+envAm12 in a final volume of 3 ml supplemented with 8 ug/ml of polybrene. This co-culture was maintained during two weeks changing the media every 2 or 3 days. After co-culture, JURMA-hCD4 cells were harvested analyzed by flow cytometry and sorted for high transgene expression. Cells were then stained with PE labeled heterodimers.

B1: IGRP13-25 TCR (TCR, V domains shown)
Valpha: DQQVKQNSPSLSVQEGRISILNCDYTNSMFDYFLWYKKYPAEGPTFLISISSIKDKNEDGRFTVFLNKSAKHLSLHIVPSQPGDSAVYFCAATNSGGSNYKLTFGKGTLLTVNP
Vbeta: DGGITQSPKYLFRKEGQNVTLSCEQNLNHDAMYWYRQDPGQGLRLIYYSQIVNDFQKGDIAEGYSVSREKKESFPLTVTSAQKNPTAFYLCASGGRVYQPQHFGDGTRLSIL
B1: recognises.
